In patent US20250388702A1 (Dana-Farber, published 2025):
One block for each binder: values may come before it.

B1: KIR2DS2 (receptor, UniProt P43631 22-304, looked up)
chain: HEGVHRKPSLLAHPGPLVKSEETVILQCWSDVRFEHFLLHREGKYKDTLHLIGEHHDGVSKANFSIGPMMQDLAGTYRCYGSVTHSPYQLSAPSDPLDIVITGLYEKPSLSAQPGPTVLAGESVTLSCSSRSSYDMYHLSREGEAHERRFSAGPKVNGTFQADFPLGPATHGGTYRCFGSFRDSPYEWSNSSDPLLVSVTGNPSNSWPSPTEPSSKTGNPRHLHVLIGTSVVKIPFTILLFFLLHRWCSNKKNAAVMDQEPAGNRTVNSEDSDEQDHQEVSYA
notes: whole, on cells
B2: KIR2DS5 (receptor, UniProt Q14953 22-304, looked up)
chain: HEGFRRKPSLLAHPGPLVKSEETVILQCWSDVMFEHFLLHREGTFNHTLRLIGEHIDGVSKGNFSIGRMTQDLAGTYRCYGSVTHSPYQLSAPSDPLDIVITGLYEKPSLSAQPGPTVLAGESVTLSCSSRSSYDMYHLSREGEAHERRLPAGPKVNRTFQADFPLDPATHGGTYRCFGSFRDSPYEWSKSSDPLLVSVTGNSSNSWPSPTEPSSETGNPRHLHVLIGTSVVKLPFTILLFFLLHRWCSNKKNASVMDQGPAGNRTVNREDSDEQDHQEVSYA
notes: whole, on cells

Experiments:
[1] = target: T1, Human HHLA2-mIgG2a fusion protein (human; mouse, UniProt Q9UM44 23-344, limits assumed); assay: cell microarray on transfected HEK293 cells, HHLA2-mIgG2a probe, AF647 anti-mouse IgG detection
T1 construct: also called HHLA2-Ig; HHLA2-mouse IgG2a; not shown: mutated at IgG2a L235E, E318A, K320A, K322A
T1 sequence: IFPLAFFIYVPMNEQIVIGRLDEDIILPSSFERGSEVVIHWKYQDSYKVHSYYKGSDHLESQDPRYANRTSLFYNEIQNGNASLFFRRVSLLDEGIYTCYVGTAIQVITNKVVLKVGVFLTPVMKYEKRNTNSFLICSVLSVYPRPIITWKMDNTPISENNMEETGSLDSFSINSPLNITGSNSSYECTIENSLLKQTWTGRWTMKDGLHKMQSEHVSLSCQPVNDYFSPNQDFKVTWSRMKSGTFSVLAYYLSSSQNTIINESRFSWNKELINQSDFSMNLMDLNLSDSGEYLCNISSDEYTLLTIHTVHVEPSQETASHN
Procedure: A library of ˜5500 full length cDNA clones covering more than 3,500 different plasma membrane proteins was arrayed in duplicate across 13 microarray slides (“slide sets”). Human HEK293 cells were grown above the cDNA clones and reverse-transfected. An expression vector (pIRES-hEGFR-IRES-ZsGreen1) was spotted in quadruplicate on every slide and was used to ensure that a minimal threshold of transfection efficiency had been achieved or exceeded on every slide.
Two replicate slides were screened for each of the 13 slide sets. Fluorescent images were analyzed and quantitated (for transfection efficiency) using ImageQuant software (GE). A protein ‘hit’ was defined as duplicate spots showing a raised signal compared to background levels. This was achieved by visual inspection using the images gridded on the ImageQuant software.

[2] = target: T2, Human KIR3DL3, Sino Biological Cat#: 16055-H08H (human, UniProt Q8N743 26-322); assay: BLI (Octet RED96), antibody captured on the sensor, antigen in solution, 1:1 model
T2 construct: Bought soluble antigen; also called KIR3DL3 (Octet antigen)
Procedure: Binding experiments were performed on Octat Red af 25″° C. The human antibodies were loaded onto Anti-higG Fe Capture biosensors and the mouse antibodies were loaded onto Anti-migG Fe Capture biosensors both for 300 seconds. The ligand loaded sensors were dipped into a 3-fold series dilution (starting at 300 nad) of the antigens (PD-1 and KIR3DL3) for 240 seconds followed by dissociation for 400 seconds. Kinetic constanta were calculated using a monovalent (1:1) binding model Antigen: Haman PD1, Sino Biological Cat #: HPLC-10377-HOSH.

KIR2DS5 = target: B2; assay: HEK293 cell microarray
Procedure: (§1) Replicate microarray slides expressing a complete KIR family cDNA panel were fixed and blocked with buffer containing PBS/0.5% BSA and incubated for 1 hour at room temperature with individual KIR3DL3 mAb hybridoma supernatants at 1:5, 1:25 and 1:250 dilutions in PBS/0.1% BSA. Cell arrays were washed with PBS and incubated for 1 hour at room temperature in PBS/0.1% BSA containing AF647-conjugated goat anti-mouse IgG (H+L) (Life Technologies, A21235). Slides were washed with PBS, dried, and imaged for ZsGreen1 and AF647 fluorescence.
as §1, with “In Table 4, replicate” for “Replicate”, “the” for “a complete”, “panel (as in FIG. 1A, FIG. 2B, and FIG. 2C)” for “panel”

KIR2DS1 = target: T3, KIR2DS1 (UniProt Q14954 22-304, limits assumed); assay: HEK293 cell microarray
T3 construct: whole, on cells
Procedure: as §1
as §1, with “In Table 4, replicate” for “Replicate”, “the” for “a complete”, “panel (as in FIG. 1A, FIG. 2B, and FIG. 2C)” for “panel”

KIR2DL2 = target: T4, KIR2DL2 (UniProt P43627 22-348, limits assumed); assay: HEK293 cell microarray
T4 construct: whole, on cells
Procedure: as §1
as §1, with “In Table 4, replicate” for “Replicate”, “the” for “a complete”, “panel (as in FIG. 1A, FIG. 2B, and FIG. 2C)” for “panel”

KIR2DS3 = target: T5, KIR2DS3 (UniProt Q14952 22-304, limits assumed); assay: HEK293 cell microarray
T5 construct: whole, on cells
Procedure: as §1
as §1, with “In Table 4, replicate” for “Replicate”, “the” for “a complete”, “panel (as in FIG. 1A, FIG. 2B, and FIG. 2C)” for “panel”

KIR3DS1 = target: T6, KIR3DS1 (UniProt Q14943 22-382, limits assumed); assay: HEK293 cell microarray
T6 construct: whole, on cells
Procedure: as §1
as §1, with “In Table 4, replicate” for “Replicate”, “the” for “a complete”, “panel (as in FIG. 1A, FIG. 2B, and FIG. 2C)” for “panel”

KIR2DL3 = target: T7, KIR2DL3 (UniProt P43628 22-341, limits assumed); assay: HEK293 cell microarray
T7 construct: whole, on cells
Procedure: as §1
as §1, with “In Table 4, replicate” for “Replicate”, “the” for “a complete”, “panel (as in FIG. 1A, FIG. 2B, and FIG. 2C)” for “panel”

KIR3DL1 = target: T8, KIR3DL1 (UniProt P43629 22-444, limits assumed); assay: HEK293 cell microarray
T8 construct: whole, on cells
Procedure: as §1
as §1, with “In Table 4, replicate” for “Replicate”, “the” for “a complete”, “panel (as in FIG. 1A, FIG. 2B, and FIG. 2C)” for “panel”

KIR3DL2 = target: T9, KIR3DL2 (UniProt P43630 22-455, limits assumed); assay: HEK293 cell microarray
T9 construct: whole, on cells
Procedure: as §1
as §1, with “In Table 4, replicate” for “Replicate”, “the” for “a complete”, “panel (as in FIG. 1A, FIG. 2B, and FIG. 2C)” for “panel”

KIR2DL1 = target: T10, KIR2DL1 (UniProt P43626 22-348, limits assumed); assay: HEK293 cell microarray
T10 construct: whole, on cells
Procedure: as §1
as §1, with “In Table 4, replicate” for “Replicate”, “the” for “a complete”, “panel (as in FIG. 1A, FIG. 2B, and FIG. 2C)” for “panel”

KIR2DS2 = target: B1; assay: HEK293 cell microarray
Procedure: as §1
as §1, with “In Table 4, replicate” for “Replicate”, “the” for “a complete”, “panel (as in FIG. 1A, FIG. 2B, and FIG. 2C)” for “panel”

KIR2DL4 = target: T11, KIR2DL4 (UniProt Q99706 22-377, limits assumed); assay: HEK293 cell microarray
T11 construct: whole, on cells
Procedure: as §1
as §1, with “In Table 4, replicate” for “Replicate”, “the” for “a complete”, “panel (as in FIG. 1A, FIG. 2B, and FIG. 2C)” for “panel”

T2 sequence (Q8N743 other isoform, or with tags, fused parts or gaps H08H H08H limits assumed): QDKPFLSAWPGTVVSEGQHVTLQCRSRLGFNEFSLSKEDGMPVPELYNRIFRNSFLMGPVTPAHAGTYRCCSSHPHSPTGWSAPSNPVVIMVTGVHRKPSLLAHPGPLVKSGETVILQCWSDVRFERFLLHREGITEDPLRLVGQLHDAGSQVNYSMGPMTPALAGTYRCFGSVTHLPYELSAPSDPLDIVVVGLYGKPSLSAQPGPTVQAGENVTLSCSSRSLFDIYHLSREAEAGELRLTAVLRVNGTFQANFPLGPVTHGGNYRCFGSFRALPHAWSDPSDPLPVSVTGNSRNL
T6 sequence (Q14943 22-382 limits assumed): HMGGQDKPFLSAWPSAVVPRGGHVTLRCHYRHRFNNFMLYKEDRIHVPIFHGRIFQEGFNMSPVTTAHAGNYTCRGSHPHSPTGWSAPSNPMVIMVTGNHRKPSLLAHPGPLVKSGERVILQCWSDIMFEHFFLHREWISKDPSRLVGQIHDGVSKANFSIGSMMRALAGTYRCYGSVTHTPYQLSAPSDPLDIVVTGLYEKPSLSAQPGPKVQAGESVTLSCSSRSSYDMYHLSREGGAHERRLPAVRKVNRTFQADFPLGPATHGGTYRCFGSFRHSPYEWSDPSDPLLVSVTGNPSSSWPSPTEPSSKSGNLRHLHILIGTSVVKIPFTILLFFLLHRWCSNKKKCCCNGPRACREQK
T10 sequence (P43626 22-348 limits assumed): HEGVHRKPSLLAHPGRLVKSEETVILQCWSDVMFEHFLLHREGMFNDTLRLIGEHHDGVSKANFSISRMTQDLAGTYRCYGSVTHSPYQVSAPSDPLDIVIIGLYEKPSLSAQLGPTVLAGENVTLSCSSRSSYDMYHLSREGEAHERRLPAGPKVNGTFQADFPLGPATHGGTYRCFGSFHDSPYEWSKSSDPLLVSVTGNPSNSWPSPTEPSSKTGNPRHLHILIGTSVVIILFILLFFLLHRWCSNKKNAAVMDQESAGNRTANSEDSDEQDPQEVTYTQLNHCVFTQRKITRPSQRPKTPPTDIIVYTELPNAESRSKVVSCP
T4 sequence (P43627 22-348 limits assumed): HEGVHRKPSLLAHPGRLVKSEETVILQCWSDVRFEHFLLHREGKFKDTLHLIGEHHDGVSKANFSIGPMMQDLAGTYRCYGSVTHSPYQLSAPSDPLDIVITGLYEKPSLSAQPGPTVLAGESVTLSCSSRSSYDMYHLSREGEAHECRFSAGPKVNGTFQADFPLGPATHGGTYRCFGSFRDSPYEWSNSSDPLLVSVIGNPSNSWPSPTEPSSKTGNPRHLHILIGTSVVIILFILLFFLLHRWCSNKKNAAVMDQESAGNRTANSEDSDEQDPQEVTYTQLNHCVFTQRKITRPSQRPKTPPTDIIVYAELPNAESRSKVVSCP
T3 sequence (Q14954 22-304 limits assumed): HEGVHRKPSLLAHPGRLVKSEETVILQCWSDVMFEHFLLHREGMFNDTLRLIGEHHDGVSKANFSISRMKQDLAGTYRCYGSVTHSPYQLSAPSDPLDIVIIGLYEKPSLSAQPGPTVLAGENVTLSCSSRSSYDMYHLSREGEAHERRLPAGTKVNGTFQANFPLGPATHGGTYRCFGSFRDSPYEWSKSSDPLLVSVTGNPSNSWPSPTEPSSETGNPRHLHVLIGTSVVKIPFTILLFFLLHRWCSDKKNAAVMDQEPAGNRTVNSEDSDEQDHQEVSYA
T8 sequence (P43629 22-444 limits assumed): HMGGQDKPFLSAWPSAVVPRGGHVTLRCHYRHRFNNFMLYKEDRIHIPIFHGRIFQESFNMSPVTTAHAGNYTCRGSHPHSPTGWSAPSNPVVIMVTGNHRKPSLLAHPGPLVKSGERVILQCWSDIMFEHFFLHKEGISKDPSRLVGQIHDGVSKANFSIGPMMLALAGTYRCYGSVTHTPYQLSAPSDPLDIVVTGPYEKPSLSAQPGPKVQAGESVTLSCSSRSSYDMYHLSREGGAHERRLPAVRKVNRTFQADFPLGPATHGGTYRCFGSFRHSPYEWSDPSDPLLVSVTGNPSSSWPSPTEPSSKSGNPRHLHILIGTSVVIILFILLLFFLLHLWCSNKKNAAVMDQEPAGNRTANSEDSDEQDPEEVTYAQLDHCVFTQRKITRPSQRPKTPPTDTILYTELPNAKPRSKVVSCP
T11 sequence (Q99706 22-377 limits assumed): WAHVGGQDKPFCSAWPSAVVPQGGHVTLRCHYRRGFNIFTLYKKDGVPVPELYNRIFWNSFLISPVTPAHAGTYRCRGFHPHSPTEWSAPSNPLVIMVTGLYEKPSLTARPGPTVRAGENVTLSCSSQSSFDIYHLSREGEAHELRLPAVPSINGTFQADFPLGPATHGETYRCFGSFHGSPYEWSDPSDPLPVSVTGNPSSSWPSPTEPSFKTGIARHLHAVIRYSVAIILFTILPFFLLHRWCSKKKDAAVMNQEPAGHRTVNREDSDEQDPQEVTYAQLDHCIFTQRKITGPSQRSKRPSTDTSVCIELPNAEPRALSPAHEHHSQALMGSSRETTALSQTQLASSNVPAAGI
T7 sequence (P43628 22-341 limits assumed): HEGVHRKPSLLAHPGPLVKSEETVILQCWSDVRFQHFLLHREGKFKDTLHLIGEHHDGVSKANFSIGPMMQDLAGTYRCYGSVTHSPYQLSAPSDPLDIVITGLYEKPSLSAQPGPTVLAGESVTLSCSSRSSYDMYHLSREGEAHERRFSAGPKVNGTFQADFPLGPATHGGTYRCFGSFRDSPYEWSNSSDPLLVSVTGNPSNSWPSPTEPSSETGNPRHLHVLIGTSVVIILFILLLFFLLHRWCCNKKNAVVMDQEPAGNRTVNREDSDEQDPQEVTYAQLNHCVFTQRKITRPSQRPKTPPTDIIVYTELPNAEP
T9 sequence (P43630 22-455 limits assumed): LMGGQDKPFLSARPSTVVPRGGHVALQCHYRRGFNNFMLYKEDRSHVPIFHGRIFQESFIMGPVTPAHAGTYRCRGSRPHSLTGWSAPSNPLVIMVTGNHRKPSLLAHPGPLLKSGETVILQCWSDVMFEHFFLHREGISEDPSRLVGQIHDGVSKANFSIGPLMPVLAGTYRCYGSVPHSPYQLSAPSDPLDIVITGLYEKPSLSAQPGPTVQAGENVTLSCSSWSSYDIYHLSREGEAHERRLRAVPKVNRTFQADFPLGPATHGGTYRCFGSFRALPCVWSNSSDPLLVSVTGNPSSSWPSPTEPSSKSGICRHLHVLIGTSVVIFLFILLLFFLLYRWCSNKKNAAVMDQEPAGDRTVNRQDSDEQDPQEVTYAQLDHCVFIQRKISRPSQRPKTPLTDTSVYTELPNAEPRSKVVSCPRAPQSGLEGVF

Binder: B1
binding result [1]: no binding (tested: 20 ug/ml)

Binder: B2
binding result [1]: no binding (tested: 20 ug/ml)

binding result [1]: no binding (tested: 20 ug/ml)
B3: CD86 (ligand, human, UniProt P42081 24-329, looked up)
single chain: APLKIQAYFNETADLPCQFANSQNQSLSELVVFWQDQENLVLNEVYLGKEKFDSVHSKYMGRTSFDSDSWTLRLHNLQIKDKGLYQCIIHHKKPTGMIRIHQMNSELSVLANFSQPEIVPISNITENVYINLTCSSIHGYPEPKKMSVLLRTKNSTIEYDGVMQKSQDNVTELYDVSISLSVSFPDVTSNMTIFCILETDKTRLLSSPFSIELEDPQPPPDHIPWITAVLPTVIICVMVFCLILWKWKKKKRPRNSYKCGTNTMEREESEQTKKREKIHIPERSDEAQRVFKSSKTSSCDKSDTCF
notes: full length, on the cell surface

Kd [2]: 0.289 nM
koff [2]: 7.19e-05 s⁻¹
kon [2]: 248000 M⁻¹ s⁻¹
B4: KIR3DL3 mAb 574.2.2F11.2.7.4 human IgG4 (S228P) (antibody, V domains shown)
VH: DVQLVESGGGLVQPGGSRKLSCAASGFTFSYFGMHWVRRAPEKGLEWVAFISSDSTTIYYTDTVKGRFTISRDNPKNTLFLQMTSLRSEDTAIYYCARFYDGAMDYWGQGTSVTVST
VL: DIVMTQSQKFMSTSVGDRVSITCKASQSVRTAVAWYQQKPGQSPKVLIYLASNRHTGVPDRFTGSGSGTDFTLTISNVQSEDLADYFCLQHWNYPLTFGAGTKLELKR
notes: Chimeric: mouse 2F11 variable domains on human IgG4 (S228P) and human kappa (Km3); Signal peptide placeholder left out; also called LP KIR3DL3 mAb (TP-31851); KIR3DL3 mAb 2F11 human IgG4

B5: KIR3DL3 mAb 574.2.1D12.1.6 (antibody, IgG2a, V domains shown)
VH: QVQLQQSGAELVRPGTSVKVSCKASGYAFNNYLIEWVKQRPGQGLEWIGVINPGSGGTNDNEKFRGKATLTADTSSSTAYMQLTSLTSDDSAVYFCARGNYYGTRDWYFDVWGAGTTVTVSS
VL: QIVLTQSPAIMSASLGARVTMTCTASSSVSSSSLHWYQQKPGSSPKLWIYSISSLASGVPARFSGSGSGTSYSLTISSLEAEDAATYYCHQYHRSPPTFGGGTKLEIK
notes: Mouse hybridoma antibody, IgG2a; only variable domains given; also called AVS-3705
binding result (KIR2DS5): no binding (tested: supernatant 1:5, 1:25, 1:250)
binding result (KIR2DS1): no binding (tested: supernatant 1:5, 1:25, 1:250)
binding result (KIR2DL2): no binding (tested: supernatant 1:5, 1:25, 1:250)
binding result (KIR2DS3): no binding (tested: supernatant 1:5, 1:25, 1:250)
binding result (KIR3DS1): no binding (tested: supernatant 1:5, 1:25, 1:250)
binding result (KIR2DL3): no binding (tested: supernatant 1:5, 1:25, 1:250)
binding result (KIR3DL1): no binding (tested: supernatant 1:5, 1:25, 1:250)
binding result (KIR3DL2): no binding (tested: supernatant 1:5, 1:25, 1:250)
binding result (KIR2DL1): no binding (tested: supernatant 1:5, 1:25, 1:250)
binding result (KIR2DS2): no binding (tested: supernatant 1:5, 1:25, 1:250)
binding result (KIR2DL4): no binding (tested: supernatant 1:5, 1:25, 1:250)
